One substance from paper PMC4210448 can be followed below.

The assay deals with Map205 (UniProt P23226). Kind of assay: PrA-Map205 affinity purification, GFP blot. Particulars: reference: Polo WT-GFP with Aurora B–Myc; sites T182.

For “Polo (from UniProt P52304) Polo T182A-GFP with Aurora B–Myc”, the “binding against the reference” value is on record as “stronger”.
